Patent publication US20220332804A1 (CSL INNOVATION, published 2022)
Changes are numbered by the printed parent chain.

Tests used:
Experiment in all cases: SPR, antibody captured, C2 as analyte;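 further: biacore SPR at 37 °C, anti-C2 mAbs captured via goat anti-human IgG on CM5 chips, double-referenced sensorgrams fit to a 1:1 kinetic or steady-state model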
human C2 V448A = target: T1, human C2 V448A (human, UniProt P06681 21-752)
T1 sequence: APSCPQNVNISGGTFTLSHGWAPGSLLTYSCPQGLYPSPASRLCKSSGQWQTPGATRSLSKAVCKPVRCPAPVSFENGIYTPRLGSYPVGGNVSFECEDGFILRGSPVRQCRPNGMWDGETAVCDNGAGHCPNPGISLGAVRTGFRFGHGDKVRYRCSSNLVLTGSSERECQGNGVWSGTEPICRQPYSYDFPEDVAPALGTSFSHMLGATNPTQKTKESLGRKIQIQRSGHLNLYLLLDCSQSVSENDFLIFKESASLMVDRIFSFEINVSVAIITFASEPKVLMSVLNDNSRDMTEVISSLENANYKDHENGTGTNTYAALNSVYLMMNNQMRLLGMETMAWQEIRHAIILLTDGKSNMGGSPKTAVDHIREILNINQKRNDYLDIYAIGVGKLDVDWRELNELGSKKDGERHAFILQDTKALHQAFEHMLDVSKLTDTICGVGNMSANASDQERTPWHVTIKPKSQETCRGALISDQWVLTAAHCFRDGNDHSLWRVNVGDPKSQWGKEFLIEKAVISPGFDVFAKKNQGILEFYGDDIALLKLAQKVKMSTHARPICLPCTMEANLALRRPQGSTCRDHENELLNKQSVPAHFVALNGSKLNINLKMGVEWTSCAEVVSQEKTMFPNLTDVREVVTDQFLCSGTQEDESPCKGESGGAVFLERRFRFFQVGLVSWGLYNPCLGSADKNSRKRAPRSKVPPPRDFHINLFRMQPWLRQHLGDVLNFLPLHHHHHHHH

human C2 K711A = target: T2, human C2 K711A (human, UniProt P06681 21-752)
T2 sequence: T1 sequence with A428V, K691A

human C2 N380A = target: T3, human C2 N380A (human, UniProt P06681 21-752)
T3 sequence: T1 sequence with N360A, A428V

human C2 K244A = target: T4, human C2 K244A (human, UniProt P06681 21-752)
T4 sequence: T1 sequence with K224A, A428V

B1: RF16-226 (antibody, human IgG4 S228P, lambda)
heavy: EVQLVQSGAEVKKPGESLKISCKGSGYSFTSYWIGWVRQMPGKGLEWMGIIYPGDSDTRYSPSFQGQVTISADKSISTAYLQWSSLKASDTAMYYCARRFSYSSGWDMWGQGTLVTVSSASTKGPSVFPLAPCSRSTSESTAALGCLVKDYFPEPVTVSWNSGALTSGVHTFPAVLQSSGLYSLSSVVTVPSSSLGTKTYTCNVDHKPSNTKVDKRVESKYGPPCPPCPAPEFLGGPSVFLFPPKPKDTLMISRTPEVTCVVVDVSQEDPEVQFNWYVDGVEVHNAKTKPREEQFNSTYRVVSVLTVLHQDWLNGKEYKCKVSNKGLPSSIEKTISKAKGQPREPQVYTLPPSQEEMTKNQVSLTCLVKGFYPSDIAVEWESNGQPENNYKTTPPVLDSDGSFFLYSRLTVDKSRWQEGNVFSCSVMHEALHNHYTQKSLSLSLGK
light: SYELTQPPSVSVSPGQTARITCSGDALTSKYVAWYQQKSGLAPLLVIYEDTRRPSGIPAKFSGSSSGSVATLTISGAHGDDEADYYCYSTDASGHQRVFGGGTKLTVLSQPKAAPSVTLFPPSSEELQANKATLVCLISDFYPGAVTVAWKADGSPVKAGVETTKPSKQSNNKYAASSYLSLTPEQWKSHRSYSCQVTHEGSTVEKTVAPTECS
notes: pH-dependent anti-C2 antibody from a phage display library; also called WT
Kd (human C2 V448A): 4.4 nM | Kd (human C2 K711A): 49.6 nM | Kd (human C2 N380A): 15.1 nM | Kd (human C2 K244A): 22.7 nM
